{
  "source": "patent US20080161234A1",
  "about": "“Composition Comprising Lactic Acid and Lactoferrin” (priority 2004, published 2008)",
  "molecules": {"B1": {"name": "rHLF: Recombinant human LF obtained from Agennix (protein, UniProt P02788 20-710, looked up)", "Lactotransferrin": "GRRRSVQWCAVSQPEATKCFQWQRNMRKVRGPPVSCIKRDSPIQCIQAIAENRADAVTLDGGFIYEAGLAPYKLRPVAAEVYGTERQPRTHYYAVAVVKKGGSFQLNELQGLKSCHTGLRRTAGWNVPIGTLRPFLNWTGPPEPIEAAVARFFSASCVPGADKGQFPNLCRLCAGTGENKCAFSSQEPYFSYSGAFKCLRDGAGDVAFIRESTVFEDLSDEAERDEYELLCPDNTRKPVDKFKDCHLARVPSHAVVARSVNGKEDAIWNLLRQAQEKFGKDKSPKFQLFGSPSGQKDLLFKDSAIGFSRVPPRIDSGLYLGSGYFTAIQNLRKSEEEVAARRARVVWCAVGEQELRKCNQWSGLSEGSVTCSSASTTEDCIALVLKGEADAMSLDGGYVYTAGKCGLVPVLAENYKSQQSSDPDPNCVDRPVEGYLAVAVVRRSDTSLTWNSVKGKKSCHTAVDRTAGWNIPMGLLFNQTGSCKFDEYFSQSCAPGSDPRSNLCALCIGDEQGENKCVPNSNERYYGYTGAFRCLAENAGDVAFVKDVTVLQNTDGNNNEAWAKDLKLADFALLCLDGKRKPVTEARSCHLAMAPNHAVVSRMDKVERLKQVLLHQQAKFGRNGSDCPDKFCLFQSETKNLLFNDNTECLARLHGKTTYEKYLGPQYVAGITNLKKCSTSPLLEACEFLRK"}},
  "format_in_all_cases": "cell-based",
  "key": {"C. albicans (ATCC 64549)": {"system": "C. albicans (ATCC 64549)", "experiment": "Microbicidal microplate assay (viable counts), C. albicans", "procedure": "The bacterial strains S. aureus 1800 (CCUG 1800), E. coli 06, and the yeast C. albicans (ATCC 64549) have been used in the microplate assay. All microorganisms were cultured in brain heart infusion medium (BHI) on a shaker over night at 37° C. A volume of the culture was transferred to a new tube with BHI and incubated for two more h on the shaker. The bacteria were harvested in the log phase, washed once and thereafter suspended in the broth used for the microplate assay. The suspension was adjusted spectrophotometrically and diluted to a concentration of approximately 4×10^6 cells per ml at 650 nm. Washed cells were suspended in 0.2% BP (pH 7.0) or BHI medium diluted 1/10 (0.34%, pH 6.7-6.9) (Difco, USA). The concentration of bacterial or fungal cells was spectrophotometrically adjusted. LF or peptide, serially diluted in BHIdil or BP by twofold steps (unless otherwise stated), were added in triplicate to the wells of a microtiterplate (200 ul per well). The bacterial or yeast cell solutions were added in 10 ul volumes to give a final concentration of approximately 2×10^5 cells per ml. The concentration of the stock solution was always checked by viable counts. The microplate was incubated at 37° C. in a humid chamber for 2 h unless otherwise stated. Five ul were taken from each well and added as a drop onto a blood agar plate and incubated over night at 37° C. In some experiments more thorough viable counts were performed and the killing was expressed as remaining colony forming units in relation to the inoculum. The lower limit for detection of microorganisms was 200 CFU/ml. The antimicrobial activity of human LF was analysed by the microbicidal assay described above. Different microbes such as C. albicans, E. coli and S. aureus were analysed with respect to their survival in lactate (not containing the inert gel base, which makes the gel unsuitable for the microbicidal assay) containing LF. […] LF was incubated together with various concentrations of lactate diluted in 0.2% bactopeptone and C. albicans for 2 h. Thereafter each solution was analysed for viable counts."}, "E. coli 06": {"system": "E. coli 06", "experiment": "Microbicidal microplate-droplet assay, E. coli", "conditions": "1 mg/ml, lactate 0.2% and lactate free solution, 2 h", "procedure": "The bacterial strains S. aureus 1800 (CCUG 1800), E. coli 06, and the yeast C. albicans (ATCC 64549) have been used in the microplate assay. All microorganisms were cultured in brain heart infusion medium (BHI) on a shaker over night at 37° C. A volume of the culture was transferred to a new tube with BHI and incubated for two more h on the shaker. The bacteria were harvested in the log phase, washed once and thereafter suspended in the broth used for the microplate assay. The suspension was adjusted spectrophotometrically and diluted to a concentration of approximately 4×10^6 cells per ml at 650 nm. Washed cells were suspended in 0.2% BP (pH 7.0) or BHI medium diluted 1/10 (0.34%, pH 6.7-6.9) (Difco, USA). The concentration of bacterial or fungal cells was spectrophotometrically adjusted. LF or peptide, serially diluted in BHIdil or BP by twofold steps (unless otherwise stated), were added in triplicate to the wells of a microtiterplate (200 ul per well). The bacterial or yeast cell solutions were added in 10 ul volumes to give a final concentration of approximately 2×10^5 cells per ml. The concentration of the stock solution was always checked by viable counts. The microplate was incubated at 37° C. in a humid chamber for 2 h unless otherwise stated. Five ul were taken from each well and added as a drop onto a blood agar plate and incubated over night at 37° C. In some experiments more thorough viable counts were performed and the killing was expressed as remaining colony forming units in relation to the inoculum. The lower limit for detection of microorganisms was 200 CFU/ml. The antimicrobial activity of human LF was analysed by the microbicidal assay described above. Different microbes such as C. albicans, E. coli and S. aureus were analysed with respect to their survival in lactate (not containing the inert gel base, which makes the gel unsuitable for the microbicidal assay) containing LF."}, "L. gasseri": {"system": "L. gasseri", "experiment": "Survival of L. gasseri in lactate with LF", "conditions": "rHLF 2 mg/ml in lactate, 2 h of incubation", "procedure": "(§1) L. gasseri and L. jensenii were cultured on chocolate-agar plates for 24 h in 5% CO2/95% air. They were thereafter harvested and added to BHI (0.34%). After washing the bacterial solutions were adjusted spectrophotometrically and diluted to 8×10^6 bacteria/ml.\n(§2) Washed cells were suspended in 0.2% BP (pH 7.0) or BHI medium diluted 1/10 (0.34%, pH 6.7-6.9) (Difco, USA). The concentration of bacterial or fungal cells was spectrophotometrically adjusted. LF or peptide, serially diluted in BHIdil or BP by twofold steps (unless otherwise stated), were added in triplicate to the wells of a microtiterplate (200 ul per well). The bacterial or yeast cell solutions were added in 10 ul volumes to give a final concentration of approximately 2×10^5 cells per ml. The concentration of the stock solution was always checked by viable counts. The microplate was incubated at 37° C. in a humid chamber for 2 h unless otherwise stated. Five ul were taken from each well and added as a drop onto a blood agar plate and incubated over night at 37° C. In some experiments more thorough viable counts were performed and the killing was expressed as remaining colony forming units in relation to the inoculum. The lower limit for detection of microorganisms was 200 CFU/ml.\n(§3) L. gasseri survived better in the assay system than did L. jensenii. Undiluted lactate (5%) affected the survival of Lactobacillus."}, "L. jensenii": {"system": "L. jensenii", "experiment": "Survival of L. jensenii in lactate with LF", "conditions": "2 mg/ml, lactate 0.2%, 2 h", "procedure": "as §1, §2, §3"}},
  "note": "“Also recorded” adds a separate entry of the source.",
  "data": [
    {"molecule": "B1", "values": [
      {"measurement": "fungicidal effect on C. albicans, rHLF in comparison to LF", "setting": "C. albicans (ATCC 64549); lactate 0.2%, 2 and 20 h", "result": "the stronger effect of rHLF was observed only after a longer incubation time"},
      {"measurement": "fungicidal effect on C. albicans, rHLF in comparison to LF", "setting": "C. albicans (ATCC 64549); lactate 1%, higher LF concentrations", "result": "stronger effect"},
      {"measurement": "killing of the inoculate", "setting": "C. albicans (ATCC 64549); rHLF 0.5-1.0 mg/ml, lactate 1%, 2 h", "result": "~99", "unit": "%"},
      {"measurement": "killing of E. coli, rHLF compared with LF", "setting": "E. coli 06", "result": "the most effective of the two LFs"},
      {"measurement": "effect on L. gasseri survival beyond that of lactate", "setting": "L. gasseri", "result": "no additional effects; also recorded: survived equally well"},
      {"measurement": "resistance of L. jensenii to the antibacterial effect", "setting": "L. jensenii", "result": "more resistant"}
    ]}
  ]
}
